# Test results taken from the DeepSol protein solubility set.
# Test: soluble on expression in E. coli; label from the status in PepcDB or PDB records
row,Sequence,soluble on expression in E. coli
1,MAYDIERYLDIRGAGDPTYGPTGELAFTLGTTGTAQVWALGAPGAWPTQLTFHDERVQWASFSPTREELAYGMDTGGDEFTQLHRVSGDGSEDVQLTAFPDAKHDWGGWSHDGDRIAYTANRRDASRFDVYVQGRDEAGANADCVRVGDTFDLPSVVGWSPSDDRLLVVDTHSNFDQDVAVLDVDTGEITRATAGLDADTRFSWVAWAPDGGGVYVTTDHDADTRYLGLLDPETGAISRVADGGDWPIEAVVTAHDAGRLAYVRNRDGYSELTIADAAGTTLTEQPTPELPDGVIRGLSWGPDGDTLAVVVSAATENPNVFVVDVATGAATQWTNAATAGIPKSTFREPELVRYETFDGREIPALFTRPDGDGPHPVIVDFHGGPEGQRRPSFLSLRQYFVDNGYAVFEPNVRGSSGYGATYMNLDNVRNRMDAVADGKAGVEWLTARTDIDADRVVAYGGSYGGFMVLASLTEYPELWAAGVDIVGIANFVTFLENTGDWRREHRESEYGSLDADREFLESISPTNNADRIRAPLLVLHGANDPRVPVGEAERIVEQASAHVPVEKHVFDDEGHGFSKRANKQAAYRAVVDFLDDHALEHHHHHH,not soluble
2,MGSDKIHHHHHHMKSVTVADLKADPIVQGYIEVGNRNLAAIGFTEHGLRHVGLVSNIAYNILEKLGYSERECELAAVAAYLHDIGNVINRSGHAQTGALLSAHILERHAMAPEEIAIVIGAIGNHDESDGNPVSNISAALILADKSDVHRSRVRNQDPATFDIHDRVNYAVEHSFLRVYPKDRVALEITINTEICPVMDYFEIFLARMLLCRRAASFLDTVFELKINEVKLL,not soluble
3,MEPHSLRYNLMVLSQDESVQSGFLAEGHLDGQPFLRYDRQKRRAKPQGQWAEDVLGAETWDTETEDLTENGQDLRRTLTHIKDQKGGLHSLQEIRVCEIHEDSSTRGSRHFYYNGELFLSQNLETQESTVPQSSRAQTLAMNVTNFWKEDAMKTKTHYRAMQADCLQKLQRYLKSGVAIRRTVPPMVNVTCSEVSEGNITVTCRASSFYPRNITLTWRQDGVSLSHNTQQWGDVLPDGNGTYQTWVATRIRQGEEQRFTCYMEHSGNHGTHPVPSGKVLVLQSQRTDFPYVSAAMPCFVIIIILCVPCCKKKTSAAEGP,soluble
4,ARQENPCGPCSERRKHLFVQDPQTCKCSCKNTDSRCKARQLELNERTCRCDKPRR,soluble
5,MIIDEKRVQEIKNGETSLGIEFGSTRIKAVLIANDFSILASGSFEWETSLENGVWTYSIDEIWKGLQYSYQKLFAEVKEKYGVVLSKIGSIGFSAMMHGYMAFDNKGELLVPFRTWRNTMTEEAAKKLTDLFKFNIPERWSIAHLYQAILRNEPHVEKIDFLTTLAGYIHWQLTGEKVLGIGDASGMFPIDTQTHNYDKNMLETFKNLPEVKKHSLDLEKLLPKVLLAGENAGVLTLEGAKKLDVSGNLQPGIPLCPPEGDAGTGMVATNSVAPRTGNVSAGTSIFAMVVLEKPLNRVHPEIDIVTTPSGDLVAMVHANNGCSDLEAWVNIFQQFTEAINVDMRKDLLYMALYTQAFQGDPDCGGVLAYNYFAGENITGVSEGRPMVVRKAKSNFNLPNFMRAHLFTSLGALKIGMDILLKDEAVKLDKLLGHGGLFKTPIVGQAAVAGAVNAPVSVMETAGEGGAWGIALLASYLRSKENDSTLPEFLSKNVFAGYVAEEVQPDPKDVKGFEEFIERYKKGIAIEQAAVEHLILEHHHHHH,not soluble
6,MAHHHHHHMKTFRYLTITGDTITLRRGARHVMHLLLTLERAPYDTRLNLEFVSLAHMRQLNYKYKGLDRPTDVLTFAPAGEADSFVNDLLFGDFLERGDGDKGTGATLTASPTCAAAVGAGPNALTQSIIRGELVDLGNIFVSLDYMRLRCRRYPSTTLPLAPYLHAALVHATLHALGYDHTSRALLQQMARREQQLGRQLAMIARQHPRCLPPLNIWDSM,not soluble
7,MGSDKIHHHHHHMIPISLIQETAEGLMDKAAIEIPQDYLDGLQEAARTEDGDLSSFVLKAMLDNYEAAKEDRRAMCGDTGVPRWFVKMGNDASVEGGMVALEAALRRATANATNGVPLRPNRVHPLWRTDHNNNVGIGAPEIEYGFEPEGEWIDLITVHKGGLFGTDYRMLFPSDGLQGIKRFYLDSLMAFGKRGLACQPAIIGIGLGGSKDICMTLGKRASTLRVVGSRNSDPRIAEMEDEFKALGNSIGMGAMGFVGKNMVIDCNIEVGYCHTGGLPMSVHAFCLSSRRAVARIHADGRVEHRTDPDWFTDYQRRETIDWPLAQEAAE,not soluble
8,MSLEFLIYSLPEEVLREEMLGNFSVALKLIDDFLKKDLPLLQRERLIYEKERIERLLEDYPFTEKEAMEKMREMFEGFSEGEFQYLMNEGVLDYIVVEGEKRFERRFFHNLAFVRSEYRERLRKDERSEKARRILHERLERLIKGEDPKRYRIRARITLKLKETSSKHRVWLPFPKESLQIESVKLLRTSHKSYYISPNDVPQRTIYFEGEDSTFFVEFEYIVREWVNHVDPERVSEKVAGFEEFLKEEPPHIVFTPKLRWLTQTVVGSEVNPYLKAKRIYDWITLNVRYSYVKPYALYENITDFVVNNLKGDCGFQALLFITMCRIAGVPARWQSGWYINPIFGSPHDWALFYVEPYGWLPADLSFGGARRDNESFRSFYFGNLDGFRMVANDGFMKDFDPKTRFVRSDPTDNQVGEAESEEKRLPFESTIEVISFEEVEGGSHHHHHH,soluble
9,MFDILMYLFENYVHSEVELLVDEDELTKELTRAGFHQSEILKALTWLERLAELQEGDKPYLCNHDQHSFRIYTKDEMEKLDVECRGFLLFLEQVKVLNVETREMVIDRVMELDEPALILEDLKWVILMVLFNAPGHESAYEQMEDLIFEQPEEGRLHS,soluble
10,MKCRKCGEPSVYHQKHSGNKYCRTCFIKETKRKVRKTLGRDVLKNNIKVAMGLSGGKDSLVMAYLLNEFYKEIPNSKIIAIMVNEGIEGYRLDGIEAAVKFCEKHDIEYKIVQFKDYLGTNLDEIVKLAKEKNLTMNPCSFCGVIRRKILNRVSIEEKCDFLAIGHNLDDIAQAVMMNYIEGDVKKLAFLGKSLKHPKFVKRIKPLEKIPEDEVLLLADMLELTYHKSPCPYSCLSFRSEVSEITDTLEKNHPGTKYSIVRGYERLLEHIELPGYTGECKICGDLSATEVCKVCSYLKNLGILEKSKFEKI,not soluble
11,MMKDAVVITVGNEVLKGRTVNTNASFIGNFLTYQGYRVKLGLTVMDDLEDISWAFKTAMDRGDVIVSSGGLGPTFDDMTVEGFAKAIGSDNKLNQDALAMIEEKYKNIEITPERKKMAMMPEVCKPIRNPVGTAPGLLCSVGGKKVVILPGVPMEMQALLESMRDSLAIENSCYFDESINITGIMESTFAPYVERVMREVDGVYVKSHPKNIEVVNPSLEIEVSAYDVSQEAARKKVKDAIARIRAYAETILDSKDK,not soluble
12,MSLERKLEIVKTKTENYTIKVDGVFIHSKYDPLREAETFAIKNIELIKNSRYIVIYGFGLGYHIEAVLRHMNEESMLAVFDADLEVIKEAKKQSLYKKLIKNPRLKCFFDYGDEFLKEFSKSLSLAKNIIIYRPSLKVLPEEFGHMARLLKGYELAKIEIEKHGKLAEYNYDMNLKKTHKKMQDFLSFYSFGCENIVLVSSGPSLDYNIESLKKVRDRVKIFCAGSAAEFLIKNHIIPDMICIIDPQDIVYTQLQSILNKNIPLCFLSSACSRVVSEWSGEKFLFFNDFNAARENNDVVVETGKSVATAILSIAVLKKPKKVIFIGQDLAYLNGKSHHDNYGSSQSSGIKKVRSVDGEYLETNEGFLYFKSWIEQKIMKSKDIEFINCSSGAEIKGTIASKLIDAIKEGHHHHHH,soluble
13,MSLCQLLGMNCNTPTDIMFSFEGFRRRGGITDHHADGFGIGFFEGKGVRLFHDDKPSVNSPVADLVRAYQIKSENVIAHIRKASQGQTSLANTHPFMREMWGGYWLFAHNGHLIDFFPEQGEFFHPVGTTDSERAFCHILNRLRTRFAARPDDDTLFDAIAGLTHEIRKFGLFNFMLSDGIALFAHASTLLHYIVRQAPFGKEGHHHHHH,not soluble
14,MTSFTIPGLSDKKASDVADLLQKQLSTYNDLHLTLKHVHWNVVGPNFIGVHEMIDPQVELVRGYADEVAERIATLGKSPKGTPGAIIKDRTWDDYSVERDTVQAHLAALDLVYNGVIEDTRKSIEKLEDLDLVSQDLLIAHAGELEKFQWFVRAHLESAGGQLTHEGQSTEKGAADKARRKSA,soluble
15,MDDPNRIVSASRRPKALIRLLDSQQIEVVLHSRLSVEDVLRLVAEKVDLSFPDSQYFCLGFSDNLNNFHWLDGSVILYDLVASTSNPKGTLTLSHHVRFFVDTIYEVQCASTAKLFFFDIHNQLARHELLVTSEDYFELVAILVSVFVPDCQEHTTAEAISRIMPMSHPPYILLKTDQSEVERRVFEKFRYYRRLPVGTGMISFIKLAEKSESYGYRMYEALNENNDKCILSIGYKGIYIYRRSRHQNLITPYLAYPWRVIDNLYYRDKKFSIEIREPKNSLHSNSSIGTMPSAKIGDGSTSSLPMSSAKPMSTQTSEPQLPDVPEPNESLHNKTIDEFQKDQEKCDRLKARKAELEMRLRQKMQELKDVCVEEGDITGEMPVEINDVVLPGDDFPRLKRRVGTAYSIPDELIKADKADKMSQLETDVELHRRIVAAASRLATDKNTNKSVRKKRQKDLQAARLRLNRLEQGLQQMRHSASKPDISSLTSDSSNSWTASNSSGPMLTMAMTKSCPTTPRGSVPDLRNGLDDEKDEFDENVEDRVSRRAPSAISRHSLSQRYSGVSSSSTSSGSDSMGLGLPPRPTSRKSQQQQTTPFDDQLDNPMICEIPPPPSSAAAHPLLVTNLLSRGKTTGCRVLTEYYPVLKRIRTNY,not soluble
16,MSLGEDSEGSGTSGISPGGNSVSEEVLKHRSMVEKYAKESDILDYVPILLAIIQVESGGTMEDVMQSSESAGLPPNSLSTEASIKQGCIYFASLVKSSKELGCDQDSIIQAYNYGGGYLNYVAKNGKKHSFTLAESFSKEKSGGQKVDYPNPIAIKENGGWRYNYGNMFYCLLVKQYLTTTQFDDKTVQGIFDEAFKYEGTAYVFGGSSPATGFDCSGLTQWCYAKVGLKLPRVAQDQYDVMTHIDLKDAKPGDLIFFHSTYDAGTYVTHVGIYAGENRMFHAGNPVGWTNLTESYWQQHLIGAGRYNEGHHHHHH,soluble
17,GSHMAIDENKQKALAAALGQIEKQFGKGSIMRLGEDRSMDVETISTGSLSLDIALGAGGLPMGRIVEIYGPESSGKTTLTLQVIAAAQREGKTCAFIDAEHALDPIYARKLGVDIDNLLCSQPDTGEQALEICDALARSGAVDVIVVDSVAALTPKAEIEGEIGDSHMGLAARMMSQAMRKLAGNLKQSNTLLIFINQIRMKIGVMFGNPETTTGGNALKFYASVRLDIRRIGAVKEGENVVGSETRVKVVKNKIAAPFKQAEFQILYGEGINFYGELVDLGVKEKLIEKAGAWYSYKGEKIGQGKANATAWLKDNPETAKEIEKKVRELLLSNPNSTPDFSVDDSEGVAETNEDF,soluble
18,SNAVFGVKEWECEVLSNKNVSTFIKEFVVKLPEGETMNFKSGSYAQIKIPKYNIRYADYDIQDRFRGDWDKMDAWSLTCKNEEETVRAYSMANYPAEGNIITLNVRIATPPFDRAANKWKAGIKPGISSSYIFSLKPGDKVMMSGPYGDFHIQDTDAEMLYIGGGAGMAPLRAQILHLFRTLKTGRKVSYWYGARSKNEIFYEEDFREIEREFPNFKFHIALSDPQPEDNWTGYVGFIHQVIYDNYLKDHDAPEDIEYYMCGPGPMANAVKGMLENLGVPRNMLFFDDFG,soluble
